Test results published in EP3670537A1.

Target: Claudin 18 splice variant 2 (CLDN18.2) (human)
Experiment: cell-based or functional assay

IMAB362 (antibody)
in vitro EC50 concentration, CDC on CLDN18.2-transfected CHO-K1 cells: 0.5 µg/mL
in vitro EC80-100, total cytotoxicity assay on NUGC-4 cells with healthy donor PBMCs (E:T 40:1) and 25% serum: 200 µg/mL
lysis rate, CDC on CLDN18.2-transfected CHO-K1 cells, pooled sera from healthy controls with 0.5 µg/ml IMAB362: 64.5%
lysis rate, CDC on CLDN18.2-transfected CHO-K1 cells, pre-infusion serum of patient 0204 with 0.5 µg/ml fresh IMAB362: 93.9%
specific killing of NUGC-4 cells by IMAB362 in patient serum 28-32 days after administration, all dose groups: > 48%
